Reference: US7252958 (Novartis, dated 2007)

Target: the molecule itself
Assay: X-ray crystal structure of CD81-LEL

B1: CD81-LEL (large extracellular loop of human CD81, amino acids 113-201) with C-terminal His-tag (receptor)
chain: FVNKDQIAKDVKQFYDQALQQAVVDDDANNAKAVVKTFHETLDCCGSSTLTALTTSVLKNNLCPSGSNIISNLFKEDCHQKIDDLFSGKHHHHHH
notes: Made in E. coli as a fusion with S. aureus Protein A and released by protease (thrombin) cleavage; it forms a homodimer in the crystal, with two chains per asymmetric unit; also called LEL-(His)6; hCD81-LEL
B1: binds.
